Measurements published in article PMC11178898, “A clade of receptor-like cytoplasmic kinases and 14-3-3 proteins coordinate inositol hexaphosphate accumulation” (Nature Communications, 2024).
One block for each molecule: values may come before it.

What was measured:
IPK2β, Split-LUC fusion = assay: Split-LUC; conditions: cluc-IPK2β, 35S::IPCK1-flag co-infiltrated (1:1:2), parent value is P2 (nluc-GRF4, cluc-IPK2β …), parent: 7442.09
IPK1-HIS = biological target: T1, IPK1-HIS (Arabidopsis thaliana, UniProt Q93YN9 1-451); assay: pull-down; in vitro; GST- and HIS-tagged proteins from E. coli BL21 (DE3); bait on GST or Ni-NTA beads, incubated with the protein of the other tag on ice for 2 h, washed with PBS, blot with anti-HIS and anti-GST; conditions: both partners purified
T1 construct: IPK1, inositol polyphosphate kinase, Arabidopsis thaliana; the CDS was cloned into pCOLD-TF; source: E. coli BL21 (DE3), pCOLD-TF, purified
T1 sequence (looked up): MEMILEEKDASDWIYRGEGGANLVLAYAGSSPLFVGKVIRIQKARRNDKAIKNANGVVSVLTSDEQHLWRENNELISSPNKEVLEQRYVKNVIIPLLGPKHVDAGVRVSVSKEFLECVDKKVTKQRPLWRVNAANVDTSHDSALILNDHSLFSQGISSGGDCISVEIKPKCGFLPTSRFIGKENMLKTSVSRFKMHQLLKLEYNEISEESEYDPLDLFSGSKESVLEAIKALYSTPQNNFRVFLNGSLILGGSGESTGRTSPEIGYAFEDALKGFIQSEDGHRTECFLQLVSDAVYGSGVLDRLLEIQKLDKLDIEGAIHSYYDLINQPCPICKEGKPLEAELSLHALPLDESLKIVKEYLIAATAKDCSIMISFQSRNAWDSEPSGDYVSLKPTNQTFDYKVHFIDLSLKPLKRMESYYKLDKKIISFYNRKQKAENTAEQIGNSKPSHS

response (cps (average)) (IPK2β, Split-LUC fusion; P4: nluc-GRF4 S242D, Total cps 2045502, Areas 266): 7690
Molecule: GRF4, Split-LUC fusion (from UniProt P46077) S242D

response (cps (average)) (IPK2β, Split-LUC fusion; P3: nluc-GRF4 S242A, Total cps 452167, Areas 116.3): 3890
Molecule: GRF4, Split-LUC fusion (from UniProt P46077) S242A

binding result (IPK1-HIS): binds
B1: GRF4-GST (natural protein, Arabidopsis thaliana, UniProt P46077 1-267, looked up)
chain: MAAPPASSSAREEFVYLAKLAEQAERYEEMVEFMEKVAEAVDKDELTVEERNLLSVAYKNVIGARRASWRIISSIEQKEESRGNDDHVTTIRDYRSKIESELSKICDGILKLLDTRLVPASANGDSKVFYLKMKGDYHRYLAEFKTGQERKDAAEHTLTAYKAAQDIANAELAPTHPIRLGLALNFSVFYYEILNSPDRACNLAKQAFDEAIAELDTLGEESYKDSTLIMQLLRDNLTLWTSDMQDESPEEIKEAAAPKPAEEQKEI
notes: GRF4, 14-3-3 protein, Arabidopsis thaliana; the CDS was cloned into pGEX-4T-1; source: E. coli BL21 (DE3), held on GST beads
